B1: MLL5 (parent)
chain: EQIAERKRKMVSWEASSLGLVTAA
B2: CDS2 (parent)
chain: IHSIALSTFASLIGPFGGFFASGF

Variants of: B1
Assay: protein stability index of a GFP-peptide fusion (GPS, HEK-293T) (PSI 1-6); higher = more stable
Conditions: c terminus: a fixed tail appended
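Further: lentivirally expressed fusions sorted by FACS into six bins by GFP to DsRed ratio, PSI derived from sequencing read proportions per bin multiplied by bin number.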

Protein stability index of substitutions, site by site:
I3: T 3.88; G 3.29; V 3.63; L 3.07; R 2.76; Q 3.09; K 3.1; D 4.19; P 3.56; A 3.18; F 2.72; C 2.46; E 2.29; Y 3.14; H 3.7; N 3.64; S 3.05
A4: R 3.59; I 2.38; Q 2.34; K 3.36; S 3.34; Y 2.8; D 3.67; L 2.95; H 3.39; V 2.56; P 3.85
E1: G 3.27; A 2.18; T 2.67; M 2.41; V 2.55; N 3.06; W 1.69; R 2.77; D 3.35; C 1.44; Q 3.2; P 3.16; L 2.53; K 4; Y 2.41; I 2.78; F 1.42
R8: L 2.79; E 3.98; W 2.72; K 3.56; P 3.25; A 3.81; C 2.76; D 2.85; Y 2.86; T 3.89; S 2.97; F 2.01; N 2.82; M 3.17; V 2.65; H 3.64; I 2.66
K7: Q 3.21; F 2.74; G 2.93; L 1.97; E 4.03; V 3.02; T 2.69; H 3.36; Y 2.29; I 2.98; C 2.19; M 1.7
K9: C 1.53; A 2.52; G 3.73; H 1.76; E 3.52; I 2.34; F 2.06; L 2.27
R6: G 3.38; Q 2.76; N 3; A 4.14; C 3.24; M 2.88; L 2.65; H 2.98; W 2.09; E 3.56; Y 2.78; F 2.67; D 3.98; I 1.65; T 3.54; K 3.18
E5: W 1.8; G 2.95; H 2.12; Q 2.79; K 3.08; N 2.07; A 2.25; C 1.87; V 2.44; P 3.01; I 2.33; S 2.13; F 2.68; D 3.49
Q2: H 2.68; N 2.37; M 2.21; K 3.05; F 2.58; D 3.66; A 2.75; T 3.25; C 1.97; S 2.55; P 2.84; V 2.79

Variants of: B2
Assay: as above
Conditions: c terminus: a fixed tail appended

Protein stability index of substitutions, site by site:
G17: V 2.5; A 2.41; R 2.63; D 3.88; P 2.78; T 4.3; Y 2.06; F 2.74; Q 2.83; S 4.37; I 2.98; K 2.22; H 3.56; C 3.58; E 3.13; L 3.48; M 2.12
F19: Q 3.63; H 2.47; E 3.01; N 3.42; R 2.72; P 2.01; K 3.44; A 2.87; L 3.19; I 2.97; V 2.86; G 3.81; Y 4.14; C 2.63; T 3.17; D 3.49; S 2.78; W 3.48; M 4.02
G18: K 2.86; T 3.73; M 3.05; W 2.32; N 2.01; R 3.42; Y 3.62; F 3.59; S 2.36; H 2.38; E 2.89; Q 3.3; A 2.37; C 2.46; D 4.39; P 2.83; V 3.83; I 3.04; L 2.48
F20: I 2.13; R 2.86; K 2.68; V 3.06; L 2.98; N 2.68; T 3.03; P 3.39; M 2.88; C 4.04; Y 1.92; A 1.97; S 2.52; H 2.66
S22: I 2.2; G 3.59; K 1.71; P 3.67; D 2.53; M 3.08; C 2.86; R 3.24; T 2.96; E 2.95; W 2.44; F 3.51; L 2.7; H 2.03; Q 2.57; V 2.54; N 2.57
G14: K 3.34; I 2.82; T 2.79; V 2.64; A 3.37; P 2.67; N 1.69; R 2.97; D 3.05; W 1.74; E 2.76; Q 2.15; C 2.05; M 2.48; Y 2.64; L 3.66
A21: T 3.65; C 3.33; Y 3.42; D 4.2; P 2.4; S 2.54; L 2.75; E 2.24; N 2.8; I 3; H 4.77; R 2.9; F 2.83; M 2.69; Q 3.25; W 2.61; V 2.06; K 2.22
I13: F 3.52; K 2.49; P 2.92; Y 2.89; W 3.97; S 2.8; N 2; T 2.77; G 2.48; L 2.64; A 2.25; Q 2.45; E 2.6; H 3.22
F16: Q 3.71; H 2.84; M 3.82; G 4.52; T 2.92; W 2.49; Y 2.37; K 3.11; A 3.6; R 2.29; D 3.08; V 2.96; L 1.91; I 4.33; P 2.02
L12: R 1.6; Q 4.09; H 3.22; I 2.76; W 3.43; K 3.15; P 2.99; T 1.49; Y 2.37; N 2.95; S 3.23
G23: T 2.53; S 1.46; N 3.46; I 1.59; L 1.42; Q 2.79; C 2.54; P 2.73; K 2.05; H 2.2; Y 2.63; F 2.67; E 4.01; M 3.23; D 2.37; V 2.14
P15: Y 1.75; N 2.82; R 1.88; F 2.46; W 2.2; T 3.98; L 4.3; C 2.62; S 2.34; K 1.77; M 3.79; I 4.59; A 2.41; G 3.77; H 2.17; E 3.88; Q 3.43; D 3.92
F24: P 3.79; C 4.83; T 3.42; Q 2.45; H 3.27; W 3.66; M 2.8; I 2.91; S 2.63; A 2.18; D 3.08; L 3.68; N 3.11; V 3.32; Y 2.52; G 4.4
